Experimental data: PMC2756588

Tests used:
Assay in all cases: SPOT array
[1] = target: GST; conditions: median of control spots 978
[2] = target: T1, Cdc25, P04821; conditions: median of control spots 969
T1 sequence (P04821 50-136, looked up): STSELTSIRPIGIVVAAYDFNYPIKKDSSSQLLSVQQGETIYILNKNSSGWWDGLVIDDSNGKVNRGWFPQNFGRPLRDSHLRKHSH

[3] = target: T2, Abp1, P15891; conditions: median of control spots 935
T2 sequence (P15891 535-592, looked up): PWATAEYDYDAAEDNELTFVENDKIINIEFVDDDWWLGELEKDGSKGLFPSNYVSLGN

[4] = target: T3, Cyk3, Q07533; conditions: median of control spots 1451
T3 sequence (Q07533 1-83, looked up): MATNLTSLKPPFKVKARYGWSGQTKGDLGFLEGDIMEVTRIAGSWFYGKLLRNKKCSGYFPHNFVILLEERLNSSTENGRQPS

[5] = target: T4, Bbc1, P47068; conditions: median of control spots 796
T4 sequence (P47068 1-78, looked up): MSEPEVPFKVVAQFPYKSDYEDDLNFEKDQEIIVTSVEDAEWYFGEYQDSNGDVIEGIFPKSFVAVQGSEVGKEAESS

[6] = target: T5, Sla1-3, P32790; conditions: median of control spots 5475
T5 sequence (P32790 344-424, looked up): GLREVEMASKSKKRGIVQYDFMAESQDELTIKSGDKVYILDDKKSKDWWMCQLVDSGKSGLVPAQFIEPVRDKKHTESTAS

[7] = target: Myo3, P36006; conditions: median of control spots 468
[8] = target: T6, Fus1, P11710; conditions: median of control spots 1200
T6 sequence (P11710 432-512, looked up): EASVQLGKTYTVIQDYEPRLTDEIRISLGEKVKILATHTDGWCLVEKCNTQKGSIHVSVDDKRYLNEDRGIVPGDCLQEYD

[9] = target: T7, Bzz1-1, P38822; conditions: median of control spots 4446
T7 sequence (P38822 478-572, looked up): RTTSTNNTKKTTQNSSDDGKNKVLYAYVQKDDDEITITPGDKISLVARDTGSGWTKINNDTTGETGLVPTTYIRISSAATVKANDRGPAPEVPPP

[10] = target: T8, Boi2, P39969; conditions: median of control spots 1161
T8 sequence (P39969 32-116, looked up): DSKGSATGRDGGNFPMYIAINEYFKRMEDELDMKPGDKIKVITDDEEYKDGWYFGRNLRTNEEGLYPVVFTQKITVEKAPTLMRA

[11] = target: T9, Nbp2, Q12163; conditions: median of control spots 357
T9 sequence (Q12163 103-180, looked up): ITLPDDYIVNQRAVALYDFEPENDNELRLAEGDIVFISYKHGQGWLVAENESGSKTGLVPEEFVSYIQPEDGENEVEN

[12] = target: Bem1-2, P29366; conditions: median of control spots 4347
Sequence of Bem1-2, P29366 (P29366 139-227): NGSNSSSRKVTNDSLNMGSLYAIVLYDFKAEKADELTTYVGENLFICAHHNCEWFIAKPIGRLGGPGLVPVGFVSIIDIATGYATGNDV

[13] = target: T10, Lsb3, P43603; conditions: median of control spots 406
T10 sequence (P43603 385-451, looked up): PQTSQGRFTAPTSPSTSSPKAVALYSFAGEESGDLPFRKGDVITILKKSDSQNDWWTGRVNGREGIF

[14] = target: T11, Boi1, P38041; conditions: median of control spots 1162
T11 sequence (P38041 1-86, looked up): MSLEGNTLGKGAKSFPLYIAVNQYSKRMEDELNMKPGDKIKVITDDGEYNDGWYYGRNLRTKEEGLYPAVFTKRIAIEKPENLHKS

[15] = target: T12, Bud14, P27637; conditions: median of control spots 956
T12 sequence (P27637 247-328, looked up): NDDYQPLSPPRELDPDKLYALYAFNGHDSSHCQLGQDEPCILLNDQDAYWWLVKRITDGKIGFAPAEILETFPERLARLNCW

[16] = target: T13, Pex13, P80667; conditions: median of control spots 1341
T13 sequence (P80667 295-386, looked up): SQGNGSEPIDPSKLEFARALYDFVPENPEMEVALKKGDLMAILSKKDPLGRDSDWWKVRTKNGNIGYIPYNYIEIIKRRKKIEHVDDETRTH

[17] = target: T14, Lsb4, P32793; conditions: median of control spots 397
T14 sequence (P32793 402-468, looked up): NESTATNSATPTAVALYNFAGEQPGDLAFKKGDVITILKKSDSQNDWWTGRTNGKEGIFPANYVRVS

[18] = target: T15, Pin3, Q06449; conditions: median of control spots 2171
T15 sequence (Q06449 53-122, looked up): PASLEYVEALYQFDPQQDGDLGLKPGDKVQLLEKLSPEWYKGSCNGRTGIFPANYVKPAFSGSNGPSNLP

[19] = target: T16, Hse1, P38753; conditions: median of control spots 1727
T16 sequence (P38753 208-285, looked up): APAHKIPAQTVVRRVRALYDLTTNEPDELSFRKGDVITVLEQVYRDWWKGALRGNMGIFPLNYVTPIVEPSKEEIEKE

[20] = target: Rvs167, P39743; conditions: median of control spots 2707
Sequence of Rvs167, P39743 (P39743 419-482): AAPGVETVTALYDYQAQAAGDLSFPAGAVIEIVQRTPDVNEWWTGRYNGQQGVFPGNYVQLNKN

[21] = target: T17, Myo5, Q04439; conditions: median of control spots 471
T17 sequence (Q04439 1072-1160, looked up): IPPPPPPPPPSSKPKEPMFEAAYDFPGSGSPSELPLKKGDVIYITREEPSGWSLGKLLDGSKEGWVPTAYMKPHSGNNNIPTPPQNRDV

[22] = target: T18, Lsb1, P53281; conditions: median of control spots 388
T18 sequence (P53281 45-122, looked up): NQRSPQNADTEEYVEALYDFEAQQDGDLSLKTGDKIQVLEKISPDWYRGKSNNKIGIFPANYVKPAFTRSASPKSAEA

[23] = target: T19, Sla1-2, P32790; conditions: median of control spots 712
T19 sequence (P32790 60-140, looked up): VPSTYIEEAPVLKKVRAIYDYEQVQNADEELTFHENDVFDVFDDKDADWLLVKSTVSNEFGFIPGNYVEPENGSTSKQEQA

[24] = target: Sho1, P40073; conditions: median of control spots 1148
Sequence of Sho1, P40073 (P40073 287-367): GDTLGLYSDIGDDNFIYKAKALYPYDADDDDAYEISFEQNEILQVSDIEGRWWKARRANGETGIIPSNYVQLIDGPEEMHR

[25] = target: T20, Bzz1-2, P38822; conditions: median of control spots 4538
T20 sequence (P38822 568-633, looked up): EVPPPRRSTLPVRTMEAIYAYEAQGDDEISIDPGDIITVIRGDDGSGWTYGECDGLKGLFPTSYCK

[26] = target: T21, Hof1, Q05080; conditions: median of control spots 4086
T21 sequence (Q05080 590-669, looked up): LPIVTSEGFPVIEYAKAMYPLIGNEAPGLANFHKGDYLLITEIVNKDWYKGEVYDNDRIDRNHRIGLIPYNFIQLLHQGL

[27] = target: Bem1-1, P29366; conditions: median of control spots 4282
Sequence of Bem1-1, P29366 (P29366 55-141): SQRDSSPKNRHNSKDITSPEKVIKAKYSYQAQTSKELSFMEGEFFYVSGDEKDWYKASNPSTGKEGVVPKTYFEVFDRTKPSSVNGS

| Binder | SPOT intensity [1] | SPOT intensity [2] | SPOT intensity [3] | SPOT intensity [4] | SPOT intensity [5] | SPOT intensity [6] | SPOT intensity [7] | SPOT intensity [8] | SPOT intensity [9] | SPOT intensity [10] | SPOT intensity [11] | SPOT intensity [12] | SPOT intensity [13] | SPOT intensity [14] | SPOT intensity [15] | SPOT intensity [16] | SPOT intensity [17] | SPOT intensity [18] | SPOT intensity [19] | SPOT intensity [20] | also measured |
| --- | --- | --- | --- | --- | --- | --- | --- | --- | --- | --- | --- | --- | --- | --- | --- | --- | --- | --- | --- | --- | --- |
| VTHRLRISIPGITGR | 1 | 19 | 225 | 0 | 30 | 0 | 13 | 14 | 0 | 0 | 72 | 4 | 8 | 0 | 12 | 20 | 22 | 46 | 5 | 0 | SPOT intensity [21]: 11; SPOT intensity [22]: 382; SPOT intensity [23]: 4; SPOT intensity [24]: 180; SPOT intensity [25]: 0; SPOT intensity [26]: 0; SPOT intensity [27]: 2 |
| ILARAILTIPRVLDK | 0 | 36 | 189 | 0 | 35 | 4 | 17 | 9 | 0 | 0 | 17 | 0 | 8 | 0 | 10 | 56 | 38 | 107 | 5 | 0 | SPOT intensity [21]: 3; SPOT intensity [22]: 23; SPOT intensity [23]: 6; SPOT intensity [24]: 137; SPOT intensity [25]: 2; SPOT intensity [26]: 0; SPOT intensity [27]: 1 |
| HHKRRPTTIDVPGLT | 0 | 42 | 26 | 0 | 2 | 4 | 7 | 180 | 0 | 1 | 1 | 28 | 3 | 2 | 8 | 18 | 5 | 28 | 3 | 0 | SPOT intensity [21]: 4; SPOT intensity [22]: 1; SPOT intensity [23]: 2; SPOT intensity [24]: 67; SPOT intensity [25]: 13; SPOT intensity [26]: 6; SPOT intensity [27]: 22 |
| LLIRWLILMPLVGSR | 2 | 176 | 166 | 4 | 339 | 7 | 34 | 168 | 3 | 4 | 215 | 4 | 6 | 23 | 29 | 78 | 25 | 47 | 25 | 1 | SPOT intensity [21]: 10; SPOT intensity [22]: 47; SPOT intensity [23]: 3; SPOT intensity [24]: 150; SPOT intensity [25]: 7; SPOT intensity [26]: 12; SPOT intensity [27]: 0 |
| NAGIRPKFILALNDE | 0 | 22 | 16 | 1 | 24 | 2 | 0 | 0 | 2 | 2 | 2 | 0 | 0 | 8 | 26 | 10 | 0 | 3 | 2 | 4 | SPOT intensity [21]: 0; SPOT intensity [22]: 0; SPOT intensity [23]: 1; SPOT intensity [24]: 31; SPOT intensity [25]: 6; SPOT intensity [26]: 1; SPOT intensity [27]: 0 |
| GTIARPLFLVVLFFI | 1 | 18 | 0 | 1 | 0 | 0 | 1 | 9 | 0 | 1 | 0 | 1 | 0 | 4 | 8 | 11 | 0 | 3 | 0 | 0 | SPOT intensity [21]: 0; SPOT intensity [22]: 0; SPOT intensity [23]: 0; SPOT intensity [24]: 0; SPOT intensity [25]: 0; SPOT intensity [26]: 0; SPOT intensity [27]: 0 |
